System: type II diabetic mice (C57BUKs-Lepr db/db)
Test: In vivo bioactivity in type II diabetic mice
Set-up: species or system mouse
Details: 5 μg peptide s.c. twice a day, Day 2, 4, 7, 10, overnight fasted
Procedure: 11-week-old type II diabetic mice (C57BUKs-Lepr^db/db, Harlan) were treated with 5 μg peptide by subcutaneous injection twice a day at 9 a.m. and 5 p.m. (n=5 per group).
Blood glucose was measured before (day 0) and after treatment with GLP^CM peptides (Day 2, 4, 7, 10) at 10 a.m. after an overnight fastening period. Data were presented in relation to blood glucose levels measured at day 0.
Best results were obtained with recombinant SEQ ID No.:6 (CM1) and synthetic SEQ ID No.:8 (CM3). In FIG. 5 (y-axis) the relative effect of the treatment is shown. Blood glucose at day=0 was set to 1. Untreated animals undergo continuous increase in blood glucose level over time, whereas animals treated with inventive peptides display grosso modo a continuous decrease of the blood glucose level over time.

B1: GLP-1(7-37)-IP2-RR-GLP2 (peptide)
chain: HAEGTFTSDVSSYLEGQAAKEFIAWLVKGRGRRDFPEEVAIAEELGRRHADGSFSDEMSTILDNLATRDFINWLIQTKITDKK
notes: 83 aa fusion peptide
anti-hyperglycemia effect (blood glucose in relation to day 0): anti-hyperglycemia effect

— US20100256332A1, “GLP-1 Fusion Peptides, Their Production and Use” (BIOCOMPATIBLES UK LTD, priority 2007, published 2010)
